Test results taken from US20230340429A1, “STEVIOL GLYCOSIDE HEXOSE TRANSFERASE AND GENE CODING FOR SAME” (SUNTORY HOLDINGS LIMITED, priority 2016, published 2023).

Legend:
[1] = in vitro glucosylation activity (GlcT) of Escherichia coli-expressed UGT protein with UDP-glucose; type: biochemical; details: recombinant protein, 30° C. 1 hour, LC-MS
Experimental: (§1) The standard enzymatic reaction conditions are as follows. A reaction solution (2 mM UDP-glucose, 0.1 mM sugar receptor substrate, 100 mM potassium phosphate buffer (pH 7.5), 25 μl of purified enzyme solution) was prepared to 50 μl with distilled water and incubated at 30° C. for 1 hour to react. The LC-MS analysis of 5 μl of the enzymatic reaction solution was carried out under the following conditions.
(§2) • Column: Imtakt SM-C18 3.0 um 4.6 mm I.D.×250 mm • Mobile phase: A: MilliQ Water (+0.2% acetic acid), • B: Methanol • Gradient: 0 to 5 min (B conc 10% constant), 5 to 20 min (B conc 10%→70%), 20 to 25 min (B conc 70%→100%), 25 to 35 min (B conc 100% constant), 35 to 36 min (B conc 100%→10%), 45 min end of analysis • Flow rate: 0.4 mL/min • Column oven: 40° C.
(§3) Evaluation of Mutants 1 and 2 was then made using the protein expressed in Escherichia coli in the same manner as in Example 4. The glucosylation activity (GlcT) and the rhamnosylation activity (RhaT) were evaluated using UDP-glucose and UDP-rhamnose, respectively, as the sugar donor and using rubusoside as the substrate, which is a sugar receptor. Stevioside and dulcoside A were produced as the reaction products in the former and in the latter, respectively.

[2] = tested on: Saccharomyces cerevisiae strain YPH499; assay: Production of Reb.C from steviol in yeast coexpressing UGTs and AtRHM2; type: cell-based; details: yeast coexpressing UGT85C2, UGT74G1, UGT76G1 and AtRHM2; 0.5 μg or 2 μg of steviol per 1 ml; HPLC, LC-MS
From the text: [Example 5] RebC synthesis by fermentative production using yeast Various steviol glycosides were produced from steviol in yeast. First, yeast that simultaneously expresses the 4 glycosylation enzyme genes UGT85C2 (SEQ ID NO: 7), UGT91D2 (SEQ ID NO: 3), UGT74G1 (SEQ ID NO: 9), and UGT76G1 (SEQ ID NO: 11) or the 4 genes UGT85C2, UGT91D2L #16, UGT74G1, and UGT76G1 from Stevia rebaudiana and the UDP-rhamnose synthase gene AtRHM2 (SEQ ID NO: 13) from Arabidopsis thaliana has been created.
The plasmids set forth in Table 1 were introduced into the Saccharomyces cerevisiae strain YPH499 (ura3-52 lys2-801^amber ade2-101^ochre trp1-Δ63 his3-Δ200 leu2-Δ1 a) as a host by the lithium acetate method. Those that grew on SC-Trp&Ura&His agar medium (6.7 g of Yeast nitrogen base without amino acids, 20 g of glucose, 1.3 g of amino acid mixture powder Trp&Ura&His, 20 g of Bacto agar, per 1 L) were selected as transformant strains.
First, 10 ml of SC-Trp&Ura&His liquid medium (SC-Trp&Ura&His agar medium without Bacto agar) was inoculated each transformant strain as a preculture and cultured with shaking at 30° C. for 1 day. […]
The obtained glycoside sample was analyzed with high performance liquid chromatography (HPLC). […]

[3] = in vitro rhamnosylation activity (RhaT) of Escherichia coli-expressed UGT protein with UDP-rhamnose; type: biochemical; details: recombinant protein, LC-MS
Experimental: as §1, §2, §3

B1: UGT91D2: known Stevia rebaudiana UDP sugar-dependent glycosyltransferase, amino acid sequence SEQ ID NO: 4 (protein, listed as Stevia rebaudiana)
chain: MYNVTYHQNSKAMATSDSIVDDRKQLHVATFPWLAFGHILPYLQLSKLIAEKGHKVSFLSTTRNIQRLSSHISPLINVVQLTLPRVQELPEDAEATTDVHPEDIPYLKKASDGLQPEVTRFLEQHSPDWIIYDYTHYWLPSIAASLGISRAHFSVTTPWAIAYMGPSADAMINGSDGRTTVEDLTTPPKWFPFPTKVCWRKHDLARLVPYKAPGISDGYRMGLVLKGSDCLLSKCYHEFGTQWLPLLETLHQVPVVPVGLLPPEIPGDEKDETWVSIKKWLDGKQKGSVVYVALGSEVLVSQTEVVELALGLELSGLPFVWAYRKPKGPAKSDSVELPDGFVERTRDRGLVWTSWAPQLRILSHESVCGFLTHCGSGSIVEGLMFGHPLIMLPIFGDQPLNARLLEDKQVGIEIPRNEEDGCLTKESVARSLRSVVVEKEGEIYKANARELSKIYNDTKVEKEYVSQFVDYLEKNARAVAIDHES
- activity to glucosylate rubusoside to produce stevioside [1]: production of stevioside
- amount of Reb.C produced [2]: Reb.C was produced
- activity to rhamnosylate rubusoside to produce dulcoside A [3]: production of dulcoside A

B2: UGT91D2L #16: novel Stevia rebaudiana UGT highly homologous with UGT91D2, amino acid sequence SEQ ID NO: 2 (protein, listed as Stevia rebaudiana)
chain: MYNVTYHQNSKAMATSDSIVDDRKQLHVATFPWLAFGHILPFLQLSKLIAEKGHKVSFLSTTRNIQRLSSHISPLINVVQLTLPRVQELPEDAEATTDVHPEDIPYLKKASDGLQPEVTRFLEQHSPDWIIYDYTHYWLPSIAASLGISRAHFSVVTPWAIAYMGPSADAMINGSDGRTTVEDLTTPPKWFPFPTKVCWRKHDLARLVPYKAPGISDGYRMGLVLKGSDCLLFKCYHEFGTQWLPLLETLHQVPVVPVGLLPPEIPGDEKDETWVSIKKWLDGKQKGSVVYVALGSEALVSQTEVVELALGLELSGLPFVWAYRKPKGPAKSDSVELPDGFVERTRDRGLVWTSWAPQLRILSHESVCGFLTHCGSGSIVEGLMFGHPLIMLPLFGDQPLNARLLEDKQVGIEIPRNEEDGCLTKESVARSLRSVVVENEGEIYKANARELSKIYNDTKVEKEYVSQFVDFLEKNARAVAIDHES
- activity to glucosylate rubusoside to produce stevioside [1]: weaker than SrUGT91D2
- amount of Reb.C produced [2]: higher than that in the strain A-5678 expressing UGT91D2
- activity to rhamnosylate rubusoside to produce dulcoside A [3]: markedly higher than SrUGT91D2
